# Laboratory results reported in the nanobody polyreactivity screen of Harvey et al. (2022).
# Test: yeast display, Sf9 membrane polyspecificity reagent, FACS + sequencing; frameworks hold sequencing errors
# In short: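 Synthetic nanobody libraries on Saccharomyces cerevisiae BJ5465 were galactose-induced for 36–48 hours, stained 1 hour at 4 °C with 10% biotinylated, detergent-solubilized Sf9 membrane reagent and enriched on streptavidin microbeads. FACS then separated cells into low and high (top ~1%) gates by anti-HA (expression) and streptavidin (reagent binding) fluorescence. Genes were colony-PCR amplified, MiSeq 2 × 250 sequenced and CDR-length filtered. A clone's polyreactivity label is that of its gate of origin.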
row,Sequence,polyreactivity (PSR sort gate)
1,QVQLVESGGGLVQAGGSLRLICAASGSIFDWNAMGWYRQAPGKERELVATISWDGGSTYYADSVKGRFTISRDNAKNTVYLQMNSLKPEDTAVYYCATVFTGKPAYYARTKYDYWGQGTQVNVSS,low polyreactivity
2,QVQLVESGGGLVQAGGSLRLSCAASGRNFLVYAMGWYRQAPGKERELVAAITYSDGSTYYADSVKGRFTISRDNAKNTVYLQMNSLKPEDTAVYYCAADSSTFPSDYYWGKGTQVTVSS,low polyreactivity
3,QVQLVESGGGLVQAGGSLRLSCAASGLTFYYYAMGWYRQAPGKERELVADISYSGGSTYYADSVKGRFTISRDNAKNTVYLQMNSLKPEDTAVYYCAAEGGYTISGSYDYWGQVTQVTVSS,low polyreactivity
4,QVQLVESGGGLVQAGGSLRLSCAASGSIFPHYAMGWYRQSPGKETELVAAISRSGTSTYYADSVKGRFTISRDNAKNTVYLQMNSLKPEDTAVYYCAALSNNGVRYYYWGQGTQVTVSS,high polyreactivity
5,QVQLVESGGGLDQAGGSLRLSCAASGFTFPRYAMGWYRQAPGKERELVAAITLIGGSTYYADSVKGRFTISRDNAKNTVYLQMNSLKPEDTAVYYCAATDRKVGVYHSYYYWGQGTQVTVSS,low polyreactivity
6,QVQLVESRAGLVQAGGSLRLSCAASGSTFGYYTMGWYRQAPGKERELVAAITWSGGSSYYADSVKGRFTISRDNAKKTVYLEMNSLKAEDTAVYFGAADDYWTPFGYWGQGTQVTVSA,low polyreactivity
7,QVQLVESGGGLVQAGGSLRLSCAASGRTFHFDAMGWYRQAPGKERELVASITWSAVRTYYADSVKGRFTISRDNAKYTVYLQMNSLKQEDTAVYYCAIDWDYRLMDYWGQGTQVTVSS,low polyreactivity
8,QVQLVESGGGLVQAGGSLRLSCAASGSTFVRNVMGWYRQAPGKEREFVAAITRSGGSTYYADSVKGRFTISRDNAKNTVYLQMNSLKPEDTAVYYCIVPPGYRLSQYEYDYWGQGTQVTVSS,low polyreactivity
9,QVQLVESGGCLVQAGGSLSLSCAASGFTFSWNAMGWYRQAPGKERELVATITRSGSTYYADSVKGRFTISRDNAKNTVYLLMNSLKPEDTAVYYCAVVSWYRYSRYENDYWGQGTQVTVSS,high polyreactivity
10,QVQLVESGGGLVQAGGSLRLSCAASGITFYWYAMGWYRQAPGKERELVARISSTGGSTYYADSVKGRFTISRDNAKNTVYLQLNSLKPEDTAVYYCNAVGRLYLYGSWGQGTQVTLSS,high polyreactivity
11,QVQLVESGGGLVQAGGILRLSCASSGSIFVTFAMGWYRQAPGTEREFVAAINWIGGSTYYADSVKGRFTISRDNAKNTVYLQMNSLKPEDTAVYDCGKRYYRRYDYWGQGTQVTVSS,high polyreactivity
12,QVQLVESCAGLVQAGGSLRLTCADSGSIFDFNAMGWYRQVPGKEREWVAAITSGGSTNYADSVKGRFTNSRDNAKNTVYLQMNSLKPEDTAVYYCAARPARGASQGGYVRPWWYDSWGQGTQVTVSS,low polyreactivity
13,QVQLVESGGVLVQAGGSLRLSCAASGRIFRANTMGWYRQAPGKEMELVANISKNGGRTYYADSVKGRFTISRDNAKNTVYLQMNSLKPEDTAVYYFNAEWRGWRFLEYGSYIYQSGYWGQGTQVTVSS,high polyreactivity
14,QVQIEESGGGLVQAGGSLRLSCAASGRTFNFYAMGWYRQATGKERELVAAISHGDSTYYADSVKGRFTISRDNAKNTVYLQMNSLKPEDTAVYYCAASQKYYLRKYEYWGQGTQVTVSS,low polyreactivity
15,QVQLVESAGGLVQAGGSLRLSCAASGFTFGWYAMGWYRQAPGKERELVAAISSTGGRTYYADSVKGRFTISRDNAKNTVYLQMNSLKPEDTAVYYCAAAYSYGTEYGYWGQGTQVTVSS,high polyreactivity
16,QVQHVESGGGLVQAGGSLRLSCAASGRTFGFNAMGWYRQATGKERELVAAITYSGGRTYYADSVKGRFTISRDNAKNTVYLHMNSLKPEDTAVYFCAALTRRVKKYDYLGQGTQVTVSS,high polyreactivity
17,QVQHVESGGGLVQAGGSLRLSCAASGRIFHFNAMGWYRQAPGKERELVAAISYRGGSTYYADSVKGRFTISRDNAKNTVYLQMNSLKPEDTAVYYCAAYTRHSARTYYYSYDYWGQGTQVTVSS,high polyreactivity
18,QVQLVESGGGLVQAGGSLRLSCAASGFIFFSYAMGWYRQAPGKEREFVASISGRTGSTYYADSVKGRFTISRDNAKNTVYLQMNSLKPEDTAVYYCNARIVHSFRYDYWGQGTQVNVSS,low polyreactivity
19,QVQLVESGGGLVQAGGSLRLSCAASGSTFRQYAMGWYRQEPGKERELVAAITWRGDNTYYADSVKGRFTISRDNAKNTVYLQMNSLKPEDTAVYYCAAEYTVYVTDWYDYYYWGQGTQVTVSS,low polyreactivity
20,QVQLQESGGGLVHAGGSLRLSCPASGTISFINMMGWYRQAPGRERELVASINFGANTNYADSVKGRFTISRDNAKNTVYLQLKSLKPEDTAVYYCAVYCAWTIGFTYWGQGTQVTVRS,high polyreactivity
21,QVQLVESGGGLVQAGGSLRLSCAASGRIIDANVMGWYRQAPGKERELVAAISASAGSTSYADSVKGRFTISRDNAKNTVYLQMNSLKPEDTAVYYCAADPYQLWHYYYFGMDYWGQGTQVTVSS,low polyreactivity
22,QVQLVESGGGLVQAGGSLRLSCAASGYTFWWYAMGWYRQAPGKEREFVAAIRFSGGTGTYYADSVKGRFTISRDNAKNTVYLQMNSLKPEDTAVYYCAADIAFRQWQVGDFDYWGQGTQVTVSS,low polyreactivity

row,Sequence,polyreactivity (PSR sort gate)
1,QVQLVESGGGLVQAGGSLRLSCAASGRTFAINTMGWYRPAPGKEREFVASITRRGGSTYYADSVKWRFTISRDNAKNTVYLQMNSLKREDNAVYYCNAELRWRLPARAAYYYWGQGTQVTFSS,high polyreactivity
2,QVQLVESGGGLVQAGGSLRLSCAASGGTFYIYVMGWYRQAPGKERELVAAITSGDSTNYADSVKGRFTISRDNAKNTVYLQMNSLKPEDTAVYYCATGYWELRYDYWGQGTQVTVSS,low polyreactivity
3,QVQLVESGGALFQAGGSLRLSCAASGRIFTIYASRWYRQAPGKATELVATISRRGGSTYYADSVKGRFTISRDNAKNNVYLQMNSLKPEVSAVYYCAADSVITWWAYDYWGQGTQVTVSS,high polyreactivity
4,QVQLVESGGGLVQAGGSLRLSCAASGFIFYRYAMGWYRQAPGKERELVAAITSSGGSTYYADSVKGRFTISRDNAKNTVYLQMNSLKPEDTAVYYCAARYTTSRYGYWGQGTQVTVSS,high polyreactivity
5,QVQLVESWGGIVQAGGSLRLSCAASGFIFSRYGMGWYRQAPGKERELVAAISRSAGSTYYADSVKGRFTISRDNAKNTVYLQMNSQKPEETAVYYCAARHGGRATVEPPIQGYGYWGQGTQVTVSS,low polyreactivity
6,QVQLVESGGGLVQARGSHRLSCAASGRTFVTNAMGWYRQAPGKERELVAAIRWSSDSTYYADSVKGRFTISRVIAKNTVYLQMNSLKPEYTAVYYCAARIPKQQGYGYWGQGTQVTVSS,high polyreactivity
7,QVQLVESGGGLVQEGGSLRLSCGASGSIFSCYAMGWYRQAPGKERELVAGITWSGGSTYYADSVKGRFTNSRDNAKNTVYLQMNSLKPEDTSVYYCAAKYYWYYSDSGIPLFDYWGQGTQVTVSS,low polyreactivity
8,QVQLVESGGGLVQAGGSLRLSCAASGFIFGKYAMGWYRQAPGKERELVAAITSDGRTYYADSVKGRFTISRDNAKNTVYLEMNSLKPEDTAVYYCAVDYYWYWYSGYDDYWGQGTQVTVSS,high polyreactivity
9,QVQLVESGGGLVQAGGSLRLSCAASGITLRGNAMGWYRQSPGKERELVAAIRTSGGRTYYADSVKGRFTISRDNAKNTVYLQMNSLIPEDTAVYYCAADYDSSYAYRTPYGYWGQGTQVTVSS,low polyreactivity
10,QVQLVESGGGLVQAGGSLRLSCAASGSTFVNYAMGWYRQAPGKERELVAAISSTGGSTYYADSVKGRFTISRDNAKNTVYLQMNSLKPEDTAVYYCAAYRYFKMGYWGQGTQVTVSS,high polyreactivity
11,QVQLVESGGGLVQAGGSLRLSCAASGRLFDSNARGWYSQAPGKERELVAAISSGASTYYADSVKGRFTISRDNAKNTVYLQMNSLKPEDTAVYYCAVRLRYAYRARGNYWGQGTQVTVSS,low polyreactivity
12,QVQLVESGGCLVQAGGSLRLSCAASGGIFYPNAMGWYRQAPGKEREFVASITRSGGSTYYADSVKGRFTISRDNAKNTVYLQLNSLTPEDTAVYDCAAAYKSLYTYTRFYYWGQGTQVTVSS,high polyreactivity
13,QVQLVESGGGLVQAGGSLRLSCAASGIIFRSYAMGWYRQAPGKERELVAAITGGGTTNYADSVKGRFTISRDNAKNTVYLQMNSLKPEDTAVYYCNAGLDWFWFNEMDYWGQGTQVTGSS,low polyreactivity
14,QVQLVESWGGLGQAVGSLRLSCAASGRTFLIYAMGWYIQAPGTERELVASITGRGGRTSYADSVKGRFTISRDNAQNTVYLQMNSLKPEDTAVYYCAARNPYTSTYYYWGQGTQVTVSS,high polyreactivity
15,QVQLVESGGGLVQAGGSLRLSCAASGRIFTRYAMGWYREAPGKERELVAAIRIGDSTNYADSVKGRFTISRDNAKNTVYLQMNSLKPEDTAVYDCAAYLPRRRYYYWGQGTQVTVSS,high polyreactivity
16,QVQLVESGGGLVQAGGILRLSCAASGRIFSRYAMGWYRQAPGKERELVAAISSSGTTTYYADSVKARFTISRDNAKNTVYLQMNSLKPEDTAVYYCAVEDRWYGPGYEYWGQGTQVTVSS,high polyreactivity
17,QVQLVESGGGLVQAGGSLRLSCAASGFTIDNYAMGWYRHSPGKEMEVVAAINWSGDRMYYADSVKGRFTFSRDNAKNTVYLQMNSLKPEDTAVYYCAAPASRSQGPFPGYDYWGQGTQVTVSS,high polyreactivity
18,QVQLVESRGGLVQAGCSLRLRCAASGFIFSWYAMGWYRHAPGKERELDAAISASGTSTYYADSVKGRFTISRDNAKNTVYLQMNSLKPEDTAVYYCAAEFVTEYLYGFVYEYDSWGQGTQVTVSS,low polyreactivity
19,QVQLVESCGGIVQAGGSHRLSCAASGSIFAWYAMGWYRQAPGKERELVAAITYTGGRTYYADSVKGRFTISRDIAKYTVYLQMISLNPEDTAVFYCAKDGPATVRRGYDYWGQGTQVTVSS,high polyreactivity
20,QLQLVESGGGLVQAGGSLRLSCAASGSTFRNNAMGWYRQAPGKERELVAAISRGGGSTYYADSVKWRFTISRDNAKNTVYLQMNSLKPDDTAVYYCARRPTGIYDYWGQGTQVTVSS,high polyreactivity
21,QVQLVESGGGLVQAGGSLRLSCAASGLIFKRYAMGWYRQAPGKERELVAAISYSGGSTYYADSVKGRFTISRDNAKNTVYLQMNSLKPEDTAVYYCATVYYHRFDYWGQGTQVTVSS,high polyreactivity
